Experimental data: US7029674B2

Key:
[1] = molecular target: PD-1 on T cells (species not stated in these experiments)
[2] = molecular target: PD-1 on T cells (species not stated in these experiments); remark: listed apart in the source
[3] = molecular target: PD-1 on T cells (species not stated in these experiments); remark: listed apart in the source
[4] = molecular target: human PD-1 on human T cells or Jurkat T cells (human)
[5] = molecular target: human PD-1 on human T cells or Jurkat T cells (human); remark: listed apart in the source
[6] = molecular target: human PD-1 gamma 2a fusion protein (human PD-1 extracellular region fused to murine Ig gamma2a hinge-CH2-CH3) (human; murine) [IgG part: P01863]; assay: ELISA: biotinylated PD-L1Fc on immobilized human PD-1Fc, streptavidin-HRP
[7] = molecular target: human PD-1 on human T cells or Jurkat T cells (human); remark: listed apart in the source
[8] = molecular target: murine PD-1 on mouse T cells (Balb/c LN T cells, DO11.10 CD4+ T cells, TCR transgenic LN T cells) (murine) (UniProt Q02242)

**Q.** Which % apoptotic T cells (propidium iodide and annexin positive), 72 hours [1] does the source give for “PD-L1.Fc (species not stated in these experiments) (Fc fusion)” here?
**A.** The % apoptotic T cells (propidium iodide and annexin positive), 72 hours was 12 % apoptotic.

**Q.** And the % IL-2R+ (CD25) T cells (flow cytometry), 79 hours [2]?
**A.** The % IL-2R+ (CD25) T cells (flow cytometry), 79 hours was 15 % IL-2R+.

**Q.** What about the % CD69+ T cells (flow cytometry), 72 hours [3] of the same substance?
**A.** The % CD69+ T cells (flow cytometry), 72 hours was 42 % CD69+.

**Q.** Which proliferation (3H-thymidine) of human CD4+ T cells, 96 hours [4] does the source give for “human PD-L1.Ig (extracellular region of human PD-L1 fused to murine Ig gamma2a hinge-CH2-CH3) (from UniProt P01863) (Fc fusion)” here?
**A.** The proliferation (3H-thymidine) of human CD4+ T cells, 96 hours was 69 % decrease.

**Q.** What about the proliferation of human CD4+ T cells, suboptimal anti-CD3 (1 µg/ml) with soluble anti-CD28 [5] of the same substance?
**A.** The proliferation of human CD4+ T cells, suboptimal anti-CD3 (1 µg/ml) with soluble anti-CD28 was 80 % reduction.

**Q.** And the ED50 [6]?
**A.** The ED50 was 0.108 µg/mL.

**Q.** And the IL-10 secretion (ELISA) by human CD4+ T cells [7]?
**A.** Its IL-10 secretion (ELISA) by human CD4+ T cells is 60 % decrease.

**Q.** What about the interferon-γ secretion (ELISA) by human CD4+ T cells [7] of the same substance?
**A.** The interferon-γ secretion (ELISA) by human CD4+ T cells was 80 % decrease.

**Q.** How did the percentage of dividing cells by propidium iodide staining (DNA content), day 4 (% dividing cells) [8] turn out when mPD-L1.Fc fusion protein was run?
**A.** The percentage of dividing cells by propidium iodide staining (DNA content), day 4 (% dividing cells) was 11.
